Target: T1, Crp1 (MSMEG_6189), C-terminal His6 (UniProt A0R5H1 1-224)
T1 sequence: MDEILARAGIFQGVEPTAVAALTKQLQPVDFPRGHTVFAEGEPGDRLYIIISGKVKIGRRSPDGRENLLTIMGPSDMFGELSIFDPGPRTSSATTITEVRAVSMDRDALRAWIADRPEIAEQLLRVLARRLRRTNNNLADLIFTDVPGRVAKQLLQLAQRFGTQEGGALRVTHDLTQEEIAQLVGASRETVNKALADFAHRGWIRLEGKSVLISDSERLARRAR
Test: EMSA; 200 uM cAMP; binding virtually abolished; EMSA: 20 mM Tris-HCl pH 8.0, 100 mM NaCl, 2.5 mM MgCl2, 1 mM EDTA, 1 mM DTT, 50 ug/ml BSA, 10% glycerol, 25 C 20 min; footprinting: 20 mM Tris-HCl pH 8.0, 0.2 mM MgCl2, 2.1 mM KCl, 0.04 mM DTT, 11.1% glycerol, 25 C, 0.15-0.6 uM Crp1
Conditions: protein: recombinant; tags: C-terminal His6; chain copies: 2; label: none (SYBR Green stain); blunt

B1: M3 (CBS1+CBS2 mutant) 99-bp (dsDNA)
DNA 1: GCAGCGGGGTCAGGAAGCTCGGCGCCGCCTTCCCGACCGGCTTTTCATCGGCGCCTCCCCCCAGCTAACCTTTCGCGCTACCTGCGTCGATCTCCTGGC
DNA 2: GCCAGGAGATCGACGCAGGTAGCGCGAAAGGTTAGCTGGGGGGAGGCGCCGATGAAAAGCCGGTCGGGAAGGCGGCGCCGAGCTTCCTGACCCCGCTGC
- binding result: no binding

Source: PMC7739888, “Induction of the cydAB Operon Encoding the bd Quinol Oxidase Under Respiration-Inhibitory Conditions by the Major cAMP Receptor Protein MSMEG_6189 in Mycobacterium smegmatis”
